Sequences and labels used below:
B1: SWI/SNF complex subunit SMARCC2, residues 599 to 641; numbered along this chain, Q8TAQ2 (parent)
chain: REWTEQETLLLLEALEMYKDDWNKVSEHVGSRTQDECILHFLR

± gives the uncertainty stated by the source.

In this data set the parent is B1. As to the kind of experiment: abundance fitness (aPCA) (normalised: wild type 0, dead -1); higher = more abundant; growth selection in yeast, the domain comes from the species named. Conditions: Homo sapiens.
As for T4L, the abundance fitness is -0.247 ± 0.1.

On to T4M, for which the abundance fitness was 0.142 ± 0.12.

For the variant T4N, the abundance fitness is 0.18 ± 0.092.

In the case of T4R, the abundance fitness is -0.305 ± 0.11.

Regarding T4V, the abundance fitness was -0.552 ± 0.081.

In the case of T4I, the abundance fitness stood at 0.029 ± 0.24.

For the variant T4F, the abundance fitness is -0.32 ± 0.45.

In the case of T4C, the abundance fitness is -0.705 ± 0.17.

Consider H28P, for which the abundance fitness was -0.86 ± 0.17.

As for H28E, the abundance fitness is -0.748 ± 0.41.

As to H28C, the abundance fitness was -0.376 ± 0.16.

Regarding H28K, the abundance fitness is -0.242 ± 0.18.

Regarding H28L, the abundance fitness was -0.433 ± 0.1.

On to H28W, for which the abundance fitness was -0.138 ± 0.24.

For the variant H40P, the abundance fitness is -0.589 ± 0.096.

Take H40T: the abundance fitness is -0.27 ± 0.099.

As to H40M, the abundance fitness was -0.148 ± 0.4.

For C37N, the abundance fitness is -0.67 ± 0.16.

In the case of C37V, the abundance fitness was -0.134 ± 0.087.

Regarding C37K, the abundance fitness was -0.328 ± 0.22.

With I38Q, the abundance fitness turned out to be 0.098 ± 0.14.

Consider I38C, for which the abundance fitness is 0.203 ± 0.13.

I38E: the abundance fitness amounted to 0.351 ± 0.19.

Consider I38H, for which the abundance fitness is 0.415 ± 0.061.

As to I38W, the abundance fitness is -0.24 ± 0.099.

Take E7L: the abundance fitness was -0.833 ± 0.19.

Turning to E7Q, the abundance fitness was determined as 0.1 ± 0.13.

Consider M17Q, for which the abundance fitness stood at 0.013 ± 0.072.

As to M17H, the abundance fitness is -0.348 ± 0.19.

With E27S, the abundance fitness is -0.21 ± 0.12.

Consider E27T, for which the abundance fitness was -0.146 ± 0.14.

L39G: the abundance fitness is 0.149 ± 0.079.

As for L39H, the abundance fitness came to 0.16 ± 0.1.

Regarding L39P, the abundance fitness was -0.24 ± 0.12.

In the case of Q34D, the abundance fitness is -0.048 ± 0.13.

Consider Q34K, for which the abundance fitness is 0.316 ± 0.13.

D20R: the abundance fitness was found to be 0.289 ± 0.061.

Consider D20S, for which the abundance fitness came out at 0.027 ± 0.088.

Regarding D20Y, the abundance fitness is -0.072 ± 0.3.

For the variant D20L, the abundance fitness is -0.448 ± 0.075.

As for D20I, the abundance fitness was -0.777 ± 0.4.

Turning to D20C, the abundance fitness is -0.15 ± 0.078.

With R32T, the abundance fitness was -0.49 ± 0.097.

For R32D, the abundance fitness is -1.04 ± 0.3.

In the case of R32E, the abundance fitness was -0.472 ± 0.26.

Regarding R32M, the abundance fitness is -0.202 ± 0.15.

Turning to R32H, the abundance fitness is -0.374 ± 0.11.

As to L15Y, the abundance fitness is 0.278 ± 0.081.

For L15G, the abundance fitness was -0.067 ± 0.076.

In the case of L15W, the abundance fitness is 0.04 ± 0.073.

In the case of L15H, the abundance fitness is 0.551 ± 0.098.

With T8M, the abundance fitness stood at 0.124 ± 0.22.

Consider T8G, for which the abundance fitness stood at 0.156 ± 0.093.

With T8S, the abundance fitness is -0.102 ± 0.065.

Turning to T8C, the abundance fitness is -0.006 ± 0.12.

In the case of T8I, the abundance fitness was 0.046 ± 0.099.

In the case of T8E, the abundance fitness stood at 0.099 ± 0.12.

In the case of D21H, the abundance fitness is -0.408 ± 0.084.

In the case of D21R, the abundance fitness was -0.192 ± 0.077.

With S26I, the abundance fitness is -0.449 ± 0.16.

For the variant S26H, the abundance fitness came to 0.095 ± 0.065.

With V25Q, the abundance fitness was -0.853 ± 0.24.

On to V25H, for which the abundance fitness is -0.578 ± 0.2.

Take V25D: the abundance fitness was -0.478 ± 0.44.

For V25W, the abundance fitness was -0.522 ± 0.12.

Take K19C: the abundance fitness is -0.314 ± 0.073.

With K19W, the abundance fitness was -0.526 ± 0.11.

L10S: the abundance fitness is -0.009 ± 0.064.

Turning to L10P, the abundance fitness was -0.422 ± 0.23.

Consider L10E, for which the abundance fitness is 0.346 ± 0.27.

In the case of L10K, the abundance fitness turned out to be 0.028 ± 0.11.

L10T: the abundance fitness was -0.226 ± 0.096.

On to E5V, for which the abundance fitness was -0.189 ± 0.063.

Regarding E5F, the abundance fitness was -0.347 ± 0.13.

Turning to E5W, the abundance fitness was -0.201 ± 0.2.

As to S31Q, the abundance fitness turned out to be 0.149 ± 0.24.

S31A: the abundance fitness is -0.019 ± 0.1.

Consider S31W, for which the abundance fitness is -0.024 ± 0.24.

As to S31V, the abundance fitness was -0.218 ± 0.071.

For the variant Y18D, the abundance fitness was -0.283 ± 0.11.

As for Y18T, the abundance fitness was -0.383 ± 0.067.

Y18Q: the abundance fitness is -0.478 ± 0.11.

With Y18S, the abundance fitness is -0.286 ± 0.071.

For the variant Y18V, the abundance fitness was -0.419 ± 0.092.

E36K: the abundance fitness is -0.507 ± 0.29.

As to E36G, the abundance fitness was -0.844 ± 0.23.

Regarding E36H, the abundance fitness was -0.196 ± 0.19.

For the variant E36L, the abundance fitness was -1.02 ± 0.34.

Take E36R: the abundance fitness is -0.873 ± 0.15.

Take E16F: the abundance fitness was -0.372 ± 0.15.

For E16I, the abundance fitness was -0.759 ± 0.15.

E16Y: the abundance fitness is -0.54 ± 0.11.

In the case of E16L, the abundance fitness is -0.698 ± 0.11.

Consider L11H, for which the abundance fitness was -0.457 ± 0.21.

Regarding L11S, the abundance fitness was -0.788 ± 0.14.

Take L11P: the abundance fitness is -1.19 ± 0.38.

As for L11R, the abundance fitness is -0.635 ± 0.14.

With L11W, the abundance fitness was -0.619 ± 0.12.

Take L11I: the abundance fitness was -0.564 ± 0.28.

With L11A, the abundance fitness is -0.364 ± 0.085.

Consider L11K, for which the abundance fitness was -0.588 ± 0.25.

For L11M, the abundance fitness is -0.357 ± 0.17.

Take K24T: the abundance fitness was -0.005 ± 0.065.

With K24W, the abundance fitness was -0.351 ± 0.072.

With E13H, the abundance fitness is -0.264 ± 0.17.

For the variant E13D, the abundance fitness is -0.182 ± 0.11.

As to E13L, the abundance fitness is -0.598 ± 0.086.

As to E13N, the abundance fitness was -0.415 ± 0.15.

For E13A, the abundance fitness is -0.028 ± 0.081.

For Q6D, the abundance fitness was -0.133 ± 0.09.

On to Q6L, for which the abundance fitness is -0.116 ± 0.068.

Turning to Q6H, the abundance fitness is -0.282 ± 0.15.

With L9Q, the abundance fitness was found to be 0.271 ± 0.07.

Turning to L9H, the abundance fitness was determined as 0.247 ± 0.066.

For L9G, the abundance fitness was 0.147 ± 0.074.

As for L9N, the abundance fitness came to 0.099 ± 0.073.

L9W: the abundance fitness is -0.118 ± 0.094.

In the case of L9D, the abundance fitness was -0.093 ± 0.09.

Consider L9M, for which the abundance fitness was 0.2 ± 0.061.

With L9R, the abundance fitness worked out at 0.168 ± 0.056.

As to A14C, the abundance fitness is -0.804 ± 0.16.

Turning to D35E, the abundance fitness was -0.035 ± 0.15.

Consider D35F, for which the abundance fitness was -0.284 ± 0.16.

As to D35A, the abundance fitness worked out at 0.121 ± 0.084.

Turning to D35R, the abundance fitness was 0.027 ± 0.066.

With D35N, the abundance fitness turned out to be 0.236 ± 0.22.

As to L12K, the abundance fitness is 0.204 ± 0.26.

For L12W, the abundance fitness is -0.145 ± 0.1.

As to W22I, the abundance fitness is -0.535 ± 0.45.

As for W22R, the abundance fitness is -0.833 ± 0.12.

As for F41Q, the abundance fitness was 0.375 ± 0.088.

Consider F41C, for which the abundance fitness was -0.425 ± 0.2.

As to F41Y, the abundance fitness was found to be 0.185 ± 0.17.

Regarding V29T, the abundance fitness is -0.297 ± 0.3.

Take V29F: the abundance fitness was -0.668 ± 0.33.

As to V29M, the abundance fitness stood at 0.092 ± 0.16.

Consider V29Q, for which the abundance fitness was -0.548 ± 0.17.

With G30S, the abundance fitness is -0.143 ± 0.084.

For G30W, the abundance fitness is -0.832 ± 0.23.

As to G30H, the abundance fitness is -0.711 ± 0.12.

Regarding G30I, the abundance fitness is -0.147 ± 0.12.

As for G30L, the abundance fitness was -0.546 ± 0.076.

With W3V, the abundance fitness was -0.203 ± 0.23.

For the variant W3T, the abundance fitness is -0.202 ± 0.15.

As to W3D, the abundance fitness is 0.1 ± 0.12.

As to W3H, the abundance fitness was -0.058 ± 0.29.

Consider W3A, for which the abundance fitness is -0.539 ± 0.25.

In the case of W3I, the abundance fitness was -0.275 ± 0.41.

With N23D, the abundance fitness stood at 0.109 ± 0.11.

On to N23V, for which the abundance fitness came to 0.059 ± 0.067.

Take N23Y: the abundance fitness is -0.285 ± 0.086.

On to N23S, for which the abundance fitness amounted to 0.064 ± 0.065.

For N23R, the abundance fitness turned out to be 0.069 ± 0.056.

As to N23F, the abundance fitness was 0.046 ± 0.084.

Turning to E2L, the abundance fitness was 0.21 ± 0.071.

With E2Y, the abundance fitness is 0.42 ± 0.16.

With R1H, the abundance fitness was -0.26 ± 0.23.

As for R1T, the abundance fitness was determined as 0.287 ± 0.081.

As to R1Q, the abundance fitness amounted to 0.526 ± 0.23.

On to R1K, for which the abundance fitness stood at 0.35 ± 0.12.

R1P: the abundance fitness is -0.025 ± 0.18.

For R1M, the abundance fitness came to 0.298 ± 0.12.

Take T33Y: the abundance fitness was -0.305 ± 0.17.

For the variant T33N, the abundance fitness was 0.125 ± 0.09.

On to L42R, for which the abundance fitness was found to be 0.589 ± 0.057.

L42K: the abundance fitness came to 0.895 ± 0.13.

For the variant L42F, the abundance fitness was found to be 0.139 ± 0.067.

For the origin of these results see the Human Domainome abundance scans (Beltran et al. 2025).
